Results from patent US20240218062A1 (DEVELOPMENT CENTER FOR BIOTECHNOLOGY, published 2024).

Tests used:
[1] = biological target: NTSR1 linear L2-biotin protein (human) (UniProt P30989); test: ELISA titration on NTSR1, anti-human IgG-HRP, OD450 minus OD650
NTSR1 protein = NTSR1 protein (UniProt P30989 1-418, limits assumed); test: SPR, Biacore T200, NTSR1 protein on CM5 chip, multi-cycle kinetics, 25 C
Procedure: To know the binding kinetics differences among individual anti-NTSR1 antibodies, surface plasmon resonance (SPR) measurement with BIACORE™ T200 (CYTIVA® Inc.) was used as previously described (Karlsson & Falt, (1997) J. Immunol Methods 200:121-133). Carboxymethylated dextran biosensor chips (CM5, CYTIVA® Inc.) were activated with N-ethyl-N′-(3-dimethylaminopropyl)-carbodiimide hydrochloride (EDC) and N-hydroxysuccinimide (NHS) according to the supplier's instructions. NTSR1 protein was diluted with 10 mM sodium acetate, pH 4.0, into 5 μg/ml before injection at a flow rate of 10 μL/minute to achieve approximately 1500 response units (RU) of coupled protein followed by the injection of 1 M ethanolamine to block unreacted groups. For kinetics measurements, two-fold serial dilutions of anti-NTSR1 mAb (0.3125 nM to 40 nM) were injected in HBS-EP+BIACORET™ running buffer provided by the manufacturer (CYTIVA® Inc.) at 25° C. at a flow rate of 30 μL/min, and binding responses on the NTSR1 protein were corrected by subtraction of responses on a blank flow cell. Association rates (kₒₙ or Kₐ) and dissociation rates (koff or Kd) were calculated using a simple one-to-one Langmuir binding model with separate fittings of kₒₙ and koff. (CYTIVA® BIACORET™ Insight Evaluation Software).

NTSR1 on FaDu cells [2] = biological target: T1, NTSR1 on FaDu cells (human, UniProt P30989 1-418); test: flow cytometry on FaDu cells (internalization assay), 10 µg/mL ADC on ice for 60 min, anti-human IgG PE [left panel (Trimannosyl anti-NTSR1 ADC]
T1 construct: whole, on cells; Endogenous NTSR1 on the human FaDu cell line; also called NTSR1 expressing cells, FaDu
T1 sequence (P30989 whole entry): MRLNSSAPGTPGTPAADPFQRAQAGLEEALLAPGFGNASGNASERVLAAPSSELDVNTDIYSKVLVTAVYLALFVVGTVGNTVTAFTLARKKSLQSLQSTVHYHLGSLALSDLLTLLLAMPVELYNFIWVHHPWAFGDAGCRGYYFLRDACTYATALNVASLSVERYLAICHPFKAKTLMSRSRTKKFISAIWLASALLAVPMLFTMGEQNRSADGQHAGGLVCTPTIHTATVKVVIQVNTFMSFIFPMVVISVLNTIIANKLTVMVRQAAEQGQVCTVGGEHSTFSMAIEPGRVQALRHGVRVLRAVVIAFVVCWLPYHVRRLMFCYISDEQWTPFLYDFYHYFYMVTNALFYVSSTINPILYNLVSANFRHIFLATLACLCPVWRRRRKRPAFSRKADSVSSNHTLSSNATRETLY
Procedure: FaDu cells were trypsinized, and then harvested and resuspended in FAC buffer. Controls: secondary Ab anti-human IgG PE (1:200) was added to the FaDu cells. The cells were incubated at 4° C. for time intervals of 0, 0.5, 2, 5 and 24 hours, and then washed by 1 mL of FACS buffer. The supernatant was discarded. Testing groups: FaDu cells were pre-incubated with 10 μg/mL ADCs of trimannosyl and anti-NTSR1 antibodies αNTSR1 (AKT2), αNTSR1 (AKT2 Hu/Hu) and αNTSR1 (AKT2 Hu/Hd) in FACS buffer on ice for 60 min, washed three times with FACS buffer, and then incubated at 37° C. for time intervals of 0, 0.5, 2, 5 and 24 hours.

NTSR1 on FaDu cells [3] = biological target: T1, NTSR1 on FaDu cells; test: flow cytometry on FaDu cells, antibody at 1 ug/mL
Procedure: (§1) Anti-NTSR1 antibodies were used to detect cells that express NTSR1 on the cell surfaces, for example using FACS. NTSR1 expressing cells, FaDu, were harvested and re-suspended in 5% PBS/FBS buffer. The cells (1×10⁵) were incubated with anti-NTSR1 antibody (1-10 μg/ml) or negative control, at 4° C. for 1 hr, and then stained with goat anti-human IgG FITC conjugate ( 1/1000) at 4° C. for 1 hr. For each assay, two additional controls were prepared; one without primary antibody and the other one with absence of any antibody. All treated samples were analyzed with […]™ (BECTON DICKINSON®) and the results were processed by […]™ software (BECTON DICKINSON®).

NTSR1 on FaDu cells [4] = biological target: T1, NTSR1 on FaDu cells; test: flow cytometry on FaDu cells, antibody at 10 ug/ml
Procedure: as §1

[5] = biological target: NTSR1 linear L2-biotin protein (human) (UniProt P30989); test: ELISA on coated NTSR1 linear L2-biotin protein, non-linear regression
[6] = biological target: NTSR1 linear L2-biotin protein (human) (UniProt P30989); test: ELISA titration, plate coated with NTSR1 linear L2-biotin protein, anti-human IgG-HRP

NTSR1 protein, sequence (P30989 whole entry): as above

| EC50 (read off the curve) [1] | Kd (NTSR1 protein) | koff (NTSR1 protein) | kon (NTSR1 protein) | binding result (NTSR1 on FaDu cells [2]) | % Flow binding (1 ug/mL) (NTSR1 on FaDu cells [3]) | % Flow binding (10 ug/ml) (NTSR1 on FaDu cells [4]) | Binder | other results |
| --- | --- | --- | --- | --- | --- | --- | --- | --- |
| – | – | – | – | – | 31% | 91% | mouse-human chimera antibody 7C3 MM (antibody, V domains shown, Mouse 7C3 variable domains sub-cloned into the human Fc chimera expression vectors pTCAEDH and pTCAEDL; The humanized plasmids are named IgG1 and Kappa; also called m7C3; mAb 7C3 MM) VH: QVQLQQPGSVLVRPGDSVMLSCKASGYTFTSSWIHWAKQRPGQGPEWIGQIRPNSGNTYYNEKFKVKATLTVDTSSSTAYVDLSSLTSEDSAVYYCARYYYGFDYWGQGTTVTVSS VL: DVLMTQTPLSLPVSLGDQASISCRSSQSIVHSNGNTYLEWYLQKPGQSPKLLIYKVSNRFSGVPDRFSGSGSGTDFTLKISRVEAEDLGVYYCFQGSHLPWTFGGGTKLEIK | Kd [5]: 0.676 nM; EC50 (read off the curve) [6]: 0.07 nM |
| – | – | – | – | binds | – | – | αNTSR1 (AKT2 Hu/Hd) 4 seco-DUBA (antibody, V domains shown, seco-DUBA payload conjugated (trimannosyl ADC); site of conjugation not given, Antibody-drug conjugate of the humanized antibody AKT2 HuHd with seco-DUBA; also called trimannosyl anti-NTSR1 ADC of AKT2 HuHd) VH: QVQLVQSGAEVKKPGASVKVSCKASGYAFTSSWIHWVRQAPGQGLEWMGQIRPNSGNTYYNEKFKVRVTMTRDTSTSTVYMELSSLRSEDTAVYYCARYHYGFDYWGQGTLVTVSS VL: DIQMTQSPSSLSASVGDRVTITCRSSQSIVHSNGNTYLEWYQQKPGKAPKLLIYKVSNRFSGVPSRFSGSGSGTDFTLTISSLQPEDFATYYCFQGAHLPWTFGQGTKVEIK | – |
| – | – | – | – | binds | – | – | αNTSR1 (AKT2 Hu/Hu) 4 seco-DUBA (antibody, V domains shown, seco-DUBA payload conjugated (trimannosyl ADC); site of conjugation not given, Antibody-drug conjugate of the humanized antibody AKT2 HuHu with seco-DUBA; also called trimannosyl anti-NTSR1 ADC of AKT2 HuHu) VH: QVQLVQSGAEVKKPGASVKVSCKASGYAFTSSWIHWVRQAPGQGLEWMGQIRPNSGNTYYNEKFKVRVTMTRDTSTSTVYMELSSLRSEDTAVYYCARYHYGFDYWGQGTLVTVSS VL: DIVMTQTPLSLSVTPGQPASISCRSSQSIVHSNGNTYLEWYLQKPGQSPQLLIYKVSNRFSGVPDRFSGSGSGTDFTLKISRVEAEDVGVYYCFQGAHLPWTFGQGTKVEIK | – |
| – | – | – | – | – | 73% | 99% | humanized antibody 7C3 HuHd (antibody, V domains shown, Full-length antibody from the human Fc vectors) VH: QVQLVQSGAEVKKPGASVKVSCKASGYTFTSSWIHWVRQAPGQGLEWMGQIRPNSGNTYYNEKFKVRVTMTRDTSTSTVYMELSSLRSEDTAVYYCARYYYGFDYWGQGTLVTVSS VL: DIQMTQSPSSLSASVGDRVTITCRSSQSIVHSNGNTYLEWYQQKPGKAPKLLIYKVSNRFSGVPSRFSGSGSGTDFTLTISSLQPEDFATYYCFQGSHLPWTFGQGTKVEIK | – |
| – | – | – | – | – | 64% | 98% | humanized 7C3 IMGT (7C3 HuHu) (antibody, V domains shown, Full-length antibody with human IgG1 / kappa constant regions (plasmids pTCAEDH 7C3 HUVH IgG1 and pTCAEDL 7C3 HUVL Kappa)) VH: QVQLVQSGAEVKKPGASVKVSCKASGYTFTSSWIHWVRQAPGQGLEWMGQIRPNSGNTYYNEKFKVRVTMTRDTSTSTVYMELSSLRSEDTAVYYCARYYYGFDYWGQGTLVTVSS VL: DIVMTQTPLSLSVTPGQPASISCRSSQSIVHSNGNTYLEWYLQKPGQSPQLLIYKVSNRFSGVPDRFSGSGSGTDFTLKISRVEAEDVGVYYCFQGSHLPWTFGQGTKVEIK | Kd [5]: 0.294 nM; EC50 (read off the curve) [6]: 0.03 nM |

The next lines start with the binder.

| Binder | EC50 (read off the curve) [1] | Kd (NTSR1 protein) | koff (NTSR1 protein) | kon (NTSR1 protein) | binding result (NTSR1 on FaDu cells [2]) | % Flow binding (1 ug/mL) (NTSR1 on FaDu cells [3]) | % Flow binding (10 ug/ml) (NTSR1 on FaDu cells [4]) | other results |
| --- | --- | --- | --- | --- | --- | --- | --- | --- |
| mouse-human chimera antibody AKT2 (antibody, V domains shown, Mouse variable domains on human constant regions; also called chimera AKT2 mAb; αNTSR1 (AKT2)) VH: QVQLQQPGSVLVRPGASVKLSCKASGYAFTSSWIHWAKQRPGQGLEWIGQIRPNSGNTYYNEKFKVKATLTVDTSSSTAYVDLSSLTSEDSAVYYCARYHYGFDYWGQGTLVTVSS VL: DVLMTQTPLSLPVSLGDQASISCRSSQSIVHSNGNTYLEWYLQKPGQSPKLLIYKVSNRFSGVPDRFSGSGSGTDFTLKISRVEAEDLGVYYCFQGAHLPWTFGGGTKLEIK | 0.06 nM | 1.61 nM | 0.000656 s⁻¹ | 407000 M⁻¹ s⁻¹ | – | – | – | – |
| αNTSR1 (AKT2) 4 seco-DUBA (antibody, V domains shown, seco-DUBA payload conjugated (trimannosyl ADC); site of conjugation not given, Antibody-drug conjugate of the mouse-human chimera antibody AKT2 with seco-DUBA; also called trimannosyl anti-NTSR1 ADC of AKT2) VH: QVQLQQPGSVLVRPGASVKLSCKASGYAFTSSWIHWAKQRPGQGLEWIGQIRPNSGNTYYNEKFKVKATLTVDTSSSTAYVDLSSLTSEDSAVYYCARYHYGFDYWGQGTLVTVSS VL: DVLMTQTPLSLPVSLGDQASISCRSSQSIVHSNGNTYLEWYLQKPGQSPKLLIYKVSNRFSGVPDRFSGSGSGTDFTLKISRVEAEDLGVYYCFQGAHLPWTFGGGTKLEIK | – | – | – | – | binds | – | – | – |
| humanized antibody AKT2 HuHd (antibody, V domains shown, Full-length humanized antibody; also called αNTSR1 (AKT2 Hu/Hd)) VH: QVQLVQSGAEVKKPGASVKVSCKASGYAFTSSWIHWVRQAPGQGLEWMGQIRPNSGNTYYNEKFKVRVTMTRDTSTSTVYMELSSLRSEDTAVYYCARYHYGFDYWGQGTLVTVSS VL: DIQMTQSPSSLSASVGDRVTITCRSSQSIVHSNGNTYLEWYQQKPGKAPKLLIYKVSNRFSGVPSRFSGSGSGTDFTLTISSLQPEDFATYYCFQGAHLPWTFGQGTKVEIK | 0.06 nM | 1.43 nM | 0.000657 s⁻¹ | 461000 M⁻¹ s⁻¹ | – | – | – | – |
| humanized antibody AKT2 HuHu (antibody, V domains shown, Full-length humanized antibody; also called αNTSR1 (AKT2 Hu/Hu)) VH: QVQLVQSGAEVKKPGASVKVSCKASGYAFTSSWIHWVRQAPGQGLEWMGQIRPNSGNTYYNEKFKVRVTMTRDTSTSTVYMELSSLRSEDTAVYYCARYHYGFDYWGQGTLVTVSS VL: DIVMTQTPLSLSVTPGQPASISCRSSQSIVHSNGNTYLEWYLQKPGQSPQLLIYKVSNRFSGVPDRFSGSGSGTDFTLKISRVEAEDVGVYYCFQGAHLPWTFGQGTKVEIK | 0.06 nM | 1.03 nM | 0.000808 s⁻¹ | 788000 M⁻¹ s⁻¹ | – | – | – | – |
